For orientation: Kd means the equilibrium constant for the complex coming apart. A word on the koff: it is a measure of how fast the partners let go of each other. By kon is commonly meant a measure of how fast the partners come together.

Data on 6 molecules can be found in patent US20220073604A1 (ARGENX BVBA, published 2022).

The target in assay [1] is T1, bacterially produced human IL-6 (human, UniProt P05231 30-212).
T1 construct: Immobilised on the Biacore chip; also called BACT IL-6 (2-1); bactIL-6
Description: SPR (Biacore), periplasmic Fab. (SPR reads the build-up and loss of mass on a sensor chip optically.)

The target in assay [2] is T2, eukaryotically produced human IL-6 (human, UniProt P05231 30-212).
T2 construct: Immobilised on the Biacore chip; also called Euk IL-6; EUK IL-6 (3-1)
Description: SPR (Biacore), periplasmic Fab.

Assay [3] concerns the target T3, cynomolgus monkey IL-6 (cynomolgus monkey, UniProt P79341 28-212, limits assumed).
T3 construct: Immobilised on the Biacore chip
Briefly: SPR (Biacore), periplasmic Fab.

Assay [4] deals with human IL-6 (as added in the B9 and 7TD1 bioassays) (human, UniProt P05231 30-212). Description: cell-based or functional assay.

B1: 55E10 (Fab, V domains shown)
VH: QVQLVESGGGLVQPGGSLRLSCAASGFTFSNYYMTWVRQAPGKGLEWVSSIYSFSGDTAYADSVKGRFTISRDNAKNTLYLQMNSLKSEDTAVYYCTRNLGGVVVTTNGYDYWGQGTQVTVSS
VL: DIQMTQSPSSLPTSLGDSVTITCQASQSISDELSWYQQKPGQTPKLLIYGASKLQTGVPSRFSGSGSGTSFTLTISGLEAEDLATYYCLQGYSWPFMFGQGTKVELK
notes: Periplasmic Fab; Suffix 'g1' not explained; also called 55E10g1
With B1, in assay [1], the Ka turned out to be 3.18e+09 M⁻¹, the Kd amounted to 0.315 nM, the “fold improvement of KD over 28A6 (parental)” value is 2.38 fold and the “fold improvement of ka over 28A6 (parental)” value (“fold improvement of ka” below) was found to be 0.81 fold. In assay [1], the “fold improvement of kd over 28A6 (parental)” value was found to be 2.92 fold, the koff worked out at 6.09e-05 s⁻¹ and the kon was 193000 M⁻¹ s⁻¹. In assay [2], the Ka was determined as 2.62e+09 M⁻¹, the Kd was found to be 0.382 nM, the “fold improvement of KD over 28A6 (parental)” value is 1.52 fold and the “fold improvement of ka” value was determined as 0.8 fold. In assay [2], the “fold improvement of kd over 28A6 (parental)” value is 1.88 fold, the koff was 5.59e-05 s⁻¹ and the kon was found to be 146000 M⁻¹ s⁻¹. For the same molecule, in assay [3], the Ka amounted to 2.1e+09 M⁻¹, the Kd turned out to be 0.476 nM, the “fold improvement of KD over 28A6 (parental)” value was 11 fold and the “fold improvement of ka” value worked out at 1.13 fold. In addition, in assay [3], the “fold improvement of kd over 28A6 (parental)” value worked out at 9.78 fold, the koff was determined as 6.88e-05 s⁻¹ and the kon was found to be 145000 M⁻¹ s⁻¹.

B2: 55A11 (Fab, V domains shown)
VH: QVQLVESGGGLVQPGGSLRLSCAASGFTFSNYYMTWVRQAPGKGLEWVSSIYSFSGDTAYADSVKGRFTISRDNAKNTLYLQMNSLKSEDTAVYYCTRNLGGVVVTTNGYDYWGQGTQVTVSS
VL: DIQMTQSPSSLPTSLGDSVTITCQASQSISDELSWYQQKPGQTPKLLIYGASRLQTGVPSRFSGRGSGTSFTLTISGLEAEDLATYYCLQGYSWPFMFGQGTKVELK
notes: Periplasmic Fab; Suffix 'd' of the label not explained; also called 55A11d
Take B2: in assay [1], the Ka is 2.78e+09 M⁻¹; the affinity, expressed as Kd, was 0.359 nM; the “fold improvement of KD over 28A6 (parental)” value stood at 2.09 fold; the “fold improvement of ka” value came to 0.79 fold. Besides, in assay [1], the “fold improvement of kd over 28A6 (parental)” value came out at 2.63 fold, the koff was 6.76e-05 s⁻¹ and the kon was determined as 188000 M⁻¹ s⁻¹. For the same molecule, in assay [2], the Ka was determined as 1.59e+09 M⁻¹, the Kd was found to be 0.631 nM, the “fold improvement of KD over 28A6 (parental)” value amounted to 0.92 fold and the “fold improvement of ka” value is 0.55 fold. For the same molecule, in assay [2], the “fold improvement of kd over 28A6 (parental)” value worked out at 1.65 fold, the koff came out at 6.36e-05 s⁻¹ and the kon stood at 101000 M⁻¹ s⁻¹. In addition, in assay [3], the Ka was 1.77e+09 M⁻¹, the Kd was 0.566 nM, the “fold improvement of KD over 28A6 (parental)” value is 9.28 fold and the “fold improvement of ka” value was found to be 1.13 fold. In addition, in assay [3], the “fold improvement of kd over 28A6 (parental)” value turned out to be 8.24 fold, the koff came out at 8.17e-05 s⁻¹ and the kon is 144000 M⁻¹ s⁻¹.

B3: 48H1 (Fab, V domains shown)
VH: QVQLVESGGGLVQPGGSLRLSCAASGFTFSNYYMTWVRQAPGKGLEWVSSIYSFSGDTAYADSVKGRFTISRDNAKNTLYLQMNSLKSEDTAVYYCTRNLGGVVVTTNGYDYWGQGTQVTVSS
VL: DVVMTQSPSSLPTSLGDSVTITCQASQSISDELSWYQQKPGQTPKLLIYGASKLQTGVPSRFSGSGSGTSFTLTISGLEAEDLATYYCLQGYSWPFMFGQGTKVELK
notes: Periplasmic Fab; Suffix 'g2, R4' not explained; also called 48H1g2, R4
Turning to B3, in assay [1], the Ka was 2.93e+09 M⁻¹, binding was put at a Kd of 0.341 nM, the “fold improvement of KD over 28A6 (parental)” value amounted to 2.2 fold and the “fold improvement of ka” value turned out to be 0.87 fold. Also, in assay [1], the “fold improvement of kd over 28A6 (parental)” value was determined as 2.53 fold, the koff stood at 7.04e-05 s⁻¹ and the association rate constant (kon) is 206000 M⁻¹ s⁻¹. In addition, in assay [2], the Ka was 1.56e+09 M⁻¹; the affinity, expressed as Kd, was 0.64 nM; the “fold improvement of KD over 28A6 (parental)” value was 0.91 fold; the “fold improvement of ka” value was 0.58 fold. Also, in assay [2], the “fold improvement of kd over 28A6 (parental)” value is 1.54 fold, the koff was found to be 6.8e-05 s⁻¹ and the kon stood at 106000 M⁻¹ s⁻¹. In assay [3], the Ka was found to be 1.18e+09 M⁻¹, the Kd was 0.845 nM, the “fold improvement of KD over 28A6 (parental)” value was found to be 6.21 fold and the “fold improvement of ka” value is 0.88 fold. Besides, in assay [3], the “fold improvement of kd over 28A6 (parental)” value is 7.11 fold, the koff was 9.46e-05 s⁻¹ and the kon was 112000 M⁻¹ s⁻¹.

B4: 55C11 (Fab, V domains shown)
VH: QVQLVESGGGLVQPGGSLRLSCAASGFTFSNYYMTWVRQAPGKGLEWVSSIYSFSGDTAYADSVKGRFTISRDNAKNTLYLQMNSLKSEDTAVYYCTRNLGGVVVTTNGYDYWGQGTQVTVSS
VL: DIQLTQSPSSLSASLGDSVTITCQASQSISDELSWYQQKPGQTPKLLIYGASKLQTGVPSRFSGSGSGTSFTLTISGLEAEDLATYYCLQGYRWPFMFGQGTKVELK
notes: Periplasmic Fab; Suffix 'f' not explained; also called 55C11f
Turning to B4, in assay [1], the Ka was found to be 3.29e+09 M⁻¹, the Kd was determined as 0.304 nM, the “fold improvement of KD over 28A6 (parental)” value came out at 2.46 fold and the “fold improvement of ka” value came to 0.96 fold. Besides, in assay [1], the “fold improvement of kd over 28A6 (parental)” value was 2.56 fold, the koff was determined as 6.94e-05 s⁻¹ and the kon came out at 228000 M⁻¹ s⁻¹. In addition, in assay [2], the Ka amounted to 3.1e+09 M⁻¹, binding was characterised by a dissociation constant (Kd) of 0.323 nM, the “fold improvement of KD over 28A6 (parental)” value worked out at 1.8 fold and the “fold improvement of ka” value was 1.1 fold. In assay [2], the “fold improvement of kd over 28A6 (parental)” value worked out at 1.62 fold, the koff was 6.47e-05 s⁻¹ and the kon stood at 201000 M⁻¹ s⁻¹. In addition, in assay [3], the Ka worked out at 3.2e+09 M⁻¹, binding was put at a Kd of 0.313 nM, the “fold improvement of KD over 28A6 (parental)” value was 16.8 fold and the “fold improvement of ka” value was determined as 2.23 fold. Also, in assay [3], the “fold improvement of kd over 28A6 (parental)” value was found to be 7.56 fold, the koff came to 8.9e-05 s⁻¹ and the kon was determined as 285000 M⁻¹ s⁻¹.

B5: 128G3 (germlined variant of 68F2), full-length IgG1 (antibody, V domains shown)
VH: EVQLQESGPGLVKPSQTLSLTCTVSGGSITTRYYAWSWIRQPPGKGLEWIGVIDYDGDTYYSPSLKSRTTISVDTSKNQFSLKLSSVTPEDTAVYYCARDPDVVTGFHYDYWGQGTMVTVSS
VL: QSALTQPPSVSGAPGQTVTISCAGANNDIGTYAYVSWYQQLPGTAPKLLIYKVTTRASGVPDRFSGSKSGNTASLAISGLQAEDEADYYCASYRNFNNAVFGGGTHLTVL
Take B5: in assay [4], the “IC50, 7TD1 proliferation assay, exp 22.06 (batch 17.06)” value turned out to be 0.00134 nM; the “IC50, 7TD1 proliferation assay, exp 29.06 (batch 17.06)” value was determined as 0.00107 nM; the “IC50, 7TD1 proliferation assay, exp 29.06 (batch 24.06)” value stood at 0.00146 nM; the “Rel. Potency, 7TD1, exp 29.06 (batch 24.06)” value is 0.38.

B6: 127E2 (germlined variant of 68F2), full-length IgG1 (antibody, V domains shown)
VH: EVQLQESGPGLVKPSQTLSLTCTVSGGSITTRYYAWSWIRQPPGKGLEWIGVIDYDGDTYYSPSLKSRVTISVDTSKNQFSLQLSSVTAEDTAVYYCARDPDVVTGFHYDYWGQGTQVTVSS
VL: QSALTQPPSVSGSPGQTVTISCAGANNDIGTYAYVSWYQQPPGTAPKLLIYKVTTRASGVPDRFSGSKSGNTASLTISGLQAEDEADYYCASYRNFNNAVFGGGTHLTVL
As for B6, in assay [4], the “IC50, 7TD1 proliferation assay, exp 22.06 (batch 24.06)” value is 0.00138 nM; the “IC50, 7TD1 proliferation assay, exp 29.06 (batch 17.06)” value was 0.00151 nM; the “IC50, 7TD1 proliferation assay, exp 29.06 (batch 24.06)” value stood at 0.00125 nM; the “Rel. Potency, 7TD1, exp 29.06 (batch 24.06)” value is 0.45.
